Here are results for two proteins from article PMC5269589, “Functional characterization of NES and GES responsible for the biosynthesis of (E)-nerolidol and (E,E)-geranyllinalool in Tripterygium wilfordii” (Scientific Reports, 2017).

One may read the Km as the concentration of substrate that gives half-maximal velocity.

Substrate in data set [1]: CC(C)=CCC/C(C)=C/CC/C(C)=C/CC/C(C)=C/COP(=O)(O)OP(=O)(O)O
The experiment in a line: GC-MS of hexane-extracted product; Michaelis-Menten fit. The format is biochemical, Tripterygium wilfordii. The conditions noted are these: pH 7.5, 30 °C, 10 min, Mg2+ 10 mM in text (20 mM in Figure 5 legend), no added K+ stated, product (E,E)-geranyllinalool.

Substrate in data set [2]: CC(C)=CCC/C(C)=C/CC/C(C)=C/CO[P@@](=O)(O)OP(=O)(O)O
The description is as above. In kind it is biochemical, Tripterygium wilfordii. The conditions noted are these: 200 mM K+, pH 7.5, 30 °C, 10 min, Mg2+ 10 mM in text (20 mM in Figure 5 legend), product (E)-nerolidol.

B1: TwGES1 (Tripterygium wilfordii) (protein)
chain: MDFSDSSIISLVDKIKVEMFVDMDVYSFVAPSAYDTAWLAMVPDSRSPVQPLFMDCLDWVLNNQREEGFWGDIDGHGMPAIESLTSTLACLIALKKWNVGESAIQKGLDFVRENAEMYIEEIKDCCPRRFAVIFPAMLEQASSLGLDNILPNHVKDTVHVMDIFIEHRRIVEKEELVETYHYPPLLAYLEALPPNKIDKDQIVTHLSSDGSLFQSPSATASAFMITGNKDCLAYLKAIIQRCPNGVPATYPIDEDLIRLCMVNHLQRLGLAEHFTKEIKNMLTSVHRNYSTNHRSTVKDSNLLHLYKDSLAFWLLRMNGYIVSPGSFCWFMQRGDIKDRIENNYYDDDFSSVMLNVYKATDLMFPGEEDQLEEARCFARKLLENVISTTSGNQNHLHKLIGHELKTPWLARLDHLEHKMWITQEHDSTLLWMGKFSFHRLSYDNSERLTQLAVQNYKYRQSIYRKELVELKRWSREWGLSEMGFGREKTTYCYFVVAASTSLPKHSDVRLIAAKIGILITVADDFFDEHASLDELQNLTHAIQRWDGKGLSGHSRTIFEVLDDLVREIAKKYKEQQEGIDVSDSLKNLWYETFLAWLVESQWSKNGHIPSMDEYIETGMISIASHTLLLPASCFLNPSLAYHQLKPLEYENITKLLMLITRLLNDTQSYQKEQKSGKKNFVLLYLKENPEAEIEDAIEYVGEIIEKKKKEFFEYALMDGLSELPKECRHLHLACLKVYQMLFNSSNRYDSNTELIQDIQEAFYQSPDPEIGVSSSKSSSIKSTKKPVSLPQHLSFKKQNNQTTSYYHSSFDYRGSNNIAVKWASWPKWRVDGYNKSMFVTPKFSPCFI
notes: MBP fusion (pMAL-c2X) from E. coli Transetta (DE3), amylose resin; tag cleavage not mentioned
As for B1, the Michaelis-Menten constant (Km) in data set [1] was 2.039 µM.

B2: TwNES (Tripterygium wilfordii) (protein)
chain: MAFFGSSRSSIIPLKTISQIVTADSTNKRGTVDSNHKSAPTTPLNDRICTEHAHKVKDFKQIINIAGEDPSEGLAIIDAVQRLGVDHHFQDEIHTILQKHYTLATGTTTHGDCMITSLRFRLLRQEGYYVSADVFEGLKDEEGKFDQNLSGDIKGLMALYEASQLSMEGENILDEARDYSSRLLNECVTQLDHDQARIVEHTLTHPHHKSLARFMAKNFLRDFHGTNGWIDDLKKLAKVDFDMAQSTYQKEVVQISQWWKELGLAEELKFARDQPVKWYIWTTTCHQDPSFSELRINLTKPISFVYLIDDIFDVYGTPQEVTDFTEAVDRWDHDAIDQLPYYMKICFKALDDITNEISYKVYKQHGWNPLDSLRKSWGRLCNAFLTEAQWFASGHLPKAEEYLENGIISSGVPVVLLHLFFLLGEGVTQKSVEMIDNTPAIVSAAAAILRLWDDLGSAKDEDQDGKDGSYLACYTNENPGCSLEDAEKHVKSKICDEWKQLNKECLSQKNPFSPSFLKACLNVSRMVPLMYEYDENRRLPRLEEFLKSILIK
notes: MBP fusion (pMAL-c2X) from E. coli Transetta (DE3), amylose resin; tag cleavage not mentioned; gene synthesized
Turning to B2, the Michaelis constant (Km) in data set [2] worked out at 12.700 µM.
